One molecule from patent CN112794900A (2ND XIANGYA HOSPITAL CENTRAL SOUTH UNIV, dated 2021) can be followed below.

For assay [1], the target named is T1, cBIN1 Isoform II2 (cBIN1 exon1-13&18-20) (UniProt O00499-6 1-482).
T1 construct: domain: cBIN1 exon1-13&18-20; tags are unknown; also called 含有exon13的cBIN1 Isoform II2蛋白
T1 sequence (looked up): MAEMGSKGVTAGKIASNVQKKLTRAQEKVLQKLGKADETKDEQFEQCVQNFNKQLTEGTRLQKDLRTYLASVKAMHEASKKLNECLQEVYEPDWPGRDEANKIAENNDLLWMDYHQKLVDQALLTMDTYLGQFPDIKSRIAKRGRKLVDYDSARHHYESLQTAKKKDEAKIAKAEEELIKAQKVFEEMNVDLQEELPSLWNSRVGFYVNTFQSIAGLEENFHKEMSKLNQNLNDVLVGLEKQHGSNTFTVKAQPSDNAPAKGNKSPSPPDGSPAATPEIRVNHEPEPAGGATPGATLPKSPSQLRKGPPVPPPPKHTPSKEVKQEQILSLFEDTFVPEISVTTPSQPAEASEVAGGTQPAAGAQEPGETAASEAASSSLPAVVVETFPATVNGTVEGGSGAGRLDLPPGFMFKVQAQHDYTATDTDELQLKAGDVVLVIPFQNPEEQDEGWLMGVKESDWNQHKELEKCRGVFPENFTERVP
Nature of the assay: ELISA, antigen coated at 0.1μg/well, OD450.

Assay [2] deals with T2, cBIN1 Isoform II3 (cBIN1 exon 1-12&18-20) (UniProt O00499-7 1-439).
T2 construct: domain: cBIN1 exon 1-12&18-20; Tags are unknown; also called 缺失exon13的cBIN1 Isoform II3蛋白
T2 sequence (looked up): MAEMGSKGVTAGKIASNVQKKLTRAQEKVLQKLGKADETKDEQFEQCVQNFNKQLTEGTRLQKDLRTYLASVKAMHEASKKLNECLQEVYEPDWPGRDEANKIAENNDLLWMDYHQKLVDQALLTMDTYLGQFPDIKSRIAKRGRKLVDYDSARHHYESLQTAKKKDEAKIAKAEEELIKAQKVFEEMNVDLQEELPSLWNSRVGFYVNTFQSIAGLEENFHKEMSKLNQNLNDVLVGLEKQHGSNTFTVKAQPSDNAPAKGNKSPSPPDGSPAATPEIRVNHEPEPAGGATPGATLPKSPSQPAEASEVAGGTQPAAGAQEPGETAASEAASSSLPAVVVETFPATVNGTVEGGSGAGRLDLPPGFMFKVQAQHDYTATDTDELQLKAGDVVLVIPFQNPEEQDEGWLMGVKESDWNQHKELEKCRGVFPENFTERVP
The assay can be described thus: ELISA, antigen coated at 0.1μg/well.

B1: 鼠源抗体 8G1-D7-F5 (抗人源cBIN1 exon13抗体) (antibody, V domains shown)
VH: EVQLQQSGAELVRPGASVKLSCTTSGFNIKDSYMHWVKQRPEQGLEWIGRIDPEDDDAVYAPKFQDRATMTADTSSNTAYLHLSSLTSDDTAVYYCTTSTLVATPWFFDVWGTGTTVTVSS
VL: DIQMTQTTSSLSASLGDRVTISCSASQDINNYLNWYQQKPDGTVKLLIYYTSTLHSGVPSRFSGSGSGTDYSLTITNLEPEDFATYYCQQYTHNLPWTFGGGTKLEIK
notes: Mouse hybridoma antibody; The printed light chain FR3 may lack a leading G; also called cBIN1抗体
In assay [1], B1 returned an EC50 of 0.058 µg/mL. In addition, the binding result in assay [2] is listed as “no binding (tested: 10μg/ml起始浓度, 三倍稀释, 11个检测点)”.
